The supplement of paper PMC9170038

Test system: MS2 coat protein
Assay: apparent KD of MS2 coat protein; designed switch direction (-1 OFF switch, 1 ON switch): -1; higher = weaker reporter binding
Procedure, shortened: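 An oligonucleotide input, 200 uM small-molecule ligand, or no input was present during titration of SNAP-549-labelled MS2 coat protein, which was doubled from 0.7 or 1.5 nM to 3 µM. Designed RNA switches had been transcribed on Illumina chips by stalled E. coli RNA polymerase. Apparent KD per design is the median over clusters of curves fitted to normalised cluster fluorescence.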

[1] = input ligand: microRNA oligo, concentration not stated
[2] = Eterna round: R95, input ligand: FMN 200 uM
[3] = Eterna round: R95, input ligand: microRNA oligo, concentration not stated
[4] = Eterna round: R95, input ligand: none

## CGGCAAAGGUAGGAUAUGCUAGACGAUAGUCUAGCAGAAGGACCUACAUGAGGAUCACCCAUGUGUCCAAGCCG [Mat - Exclusion 6 - Eli Mod - D19] (Eterna round: R97, puzzle: Exclusion 6)
Input ligand: FMN 200 uM
  apparent KD of MS2 coat protein: 27.9 nM
Input ligand: none
  apparent KD of MS2 coat protein: 105 nM

## AUUAUAUAGACAGGAUAUUGAUUAUUAUUUUAACAUGAGGAUCACCCAUGUAACCUUAUGUAUAGCAAGAAGGGUCAUUUAUUA [Title] (Eterna round: R96, puzzle: Exclusion NG 2)
Input ligand: FMN 200 uM
  apparent KD of MS2 coat protein: 107 nM
[1]
  apparent KD of MS2 coat protein: 72.9 nM
Input ligand: none
  apparent KD of MS2 coat protein: 75.6 nM

## GAUAUGUAAGGAUAUCUAGAAACGAGCGCAGGCUCAAGAAAAGAGAAGGUACAUGAGGAUCACCCAUGUUCCUG [EX4 A.13] (Eterna round: R97, puzzle: Exclusion 4)
Input ligand: FMN 200 uM
  apparent KD of MS2 coat protein: 21.1 nM
Input ligand: none
  apparent KD of MS2 coat protein: 17.9 nM

## AAGAAACGAGGAUAUACAAUUGAGUGAGAGAGGGAAGUGUGACAUGAGGAUCACCCAUGUAGAAGGCGUGAGAG [JR_Exclu2_Sub086] (puzzle: Exclusion 2)
[2]
  apparent KD of MS2 coat protein: 116 nM
[3]
  apparent KD of MS2 coat protein: 82.3 nM
[4]
  apparent KD of MS2 coat protein: 80.4 nM

## UUGUUGUAUGUAGGAUAUGCGUAUUAUUAUUAUGCAGAAGGACAUGAGGAUCACCCAUGUGUAUUAUUAUUAUAUAUUAUAUAU [Title] (Eterna round: R96, puzzle: Exclusion NG 1)
Input ligand: FMN 200 uM
  apparent KD of MS2 coat protein: 44.3 nM
[1]
  apparent KD of MS2 coat protein: 20.8 nM
Input ligand: none
  apparent KD of MS2 coat protein: 19.7 nM

## CUUAGACAUGAGGAUCACCCAUGUGAGGAUAUGAAAUUAAUUAAUUAUUAAGUAUGAAUCAGAAGGCACAUAUG [Mat - Mod of Hyphema D36] (puzzle: Exclusion 1)
[2]
  apparent KD of MS2 coat protein: 79.9 nM
[3]
  apparent KD of MS2 coat protein: 81.6 nM
[4]
  apparent KD of MS2 coat protein: 78.9 nM

## CCGCUACAUGAGGAUCACCCAUGUCAGGAUAUCGUACGUUCGUCGAAAGACGAUCGUACGAGAAGGGUGUGCGG [Eli x1 4.37] (Eterna round: R97, puzzle: Exclusion 1)
Input ligand: FMN 200 uM
  apparent KD of MS2 coat protein: 169 nM
Input ligand: none
  apparent KD of MS2 coat protein: 155 nM

## UUAAUUAAUUAAGGCUGAAGAUCACAUGAGGAUCACCCAUGUAAGGAUAUCAGCUCGAUUAGAGCUGAGAAGGUACAUGCAGCC [ExNG3/18-B1] (Eterna round: R96, puzzle: Exclusion NG 3)
Input ligand: FMN 200 uM
  apparent KD of MS2 coat protein: 53.9 nM
[1]
  apparent KD of MS2 coat protein: 377 nM
Input ligand: none
  apparent KD of MS2 coat protein: 319 nM

## GAGAAACAUGAGGAUCACCCAUGUGAGGAUAUGAAAAAGAAAAGAAAAGAAAGAAGAAUCAGAAGGCACAAAGC [salish99-ex1_r3_091] (puzzle: Exclusion 1)
[2]
  apparent KD of MS2 coat protein: 23.1 nM
[3]
  apparent KD of MS2 coat protein: 32.4 nM
[4]
  apparent KD of MS2 coat protein: 30 nM

## UACCUCACUUCUUUGACUCACAUGAGGAUCACCCAUGUAAUAUAGGAUAUGCAUUUUAUUUCUUUGCAGAAGGAUAUUAGUUUU [JR_ExcNG3_Sub089] (Eterna round: R96, puzzle: Exclusion NG 3)
[1]
  apparent KD of MS2 coat protein: 31.3 nM

## AAAAAGCGAGGAUAUGCAUAAGGACCCGGGCGGGAAGUCGGACAUGAGGAUCACCCAUGUAGAAGGCGCAAAAA [Exclss2-V] (puzzle: Exclusion 2)
[2]
  apparent KD of MS2 coat protein: 25.5 nM
[3]
  apparent KD of MS2 coat protein: 13.2 nM
[4]
  apparent KD of MS2 coat protein: 14.4 nM

## CCAAAGUCAGGAUAUGUGCGUUAAAAGCCGUACGUAACGACACAGAAGGGACAUGAGGAUCACCCAUGUUGGUG [Eternabot (Original) Solution 13] (Eterna round: R97, puzzle: Exclusion 4)
Input ligand: FMN 200 uM
  apparent KD of MS2 coat protein: 96.7 nM
Input ligand: none
  apparent KD of MS2 coat protein: 979 nM

## UUUUAGCAAGCGAGUAUUAACAUGAGGAUCACCCAUGUGCAUCCAGUAUUACUUUUAGAUCAAGCUCGUCUUAUAUA [JR_STOV1_v2_Sub082] (Eterna round: R97, puzzle: Sensor, turn-off variant 1)
Input ligand: FMN 200 uM
  apparent KD of MS2 coat protein: 199 nM
Input ligand: none
  apparent KD of MS2 coat protein: 285 nM

## AUCGUGCAGCUUUGCUGUACGAGUACAUGAGGAUCACCCAUGUAGGAUAUGGUACGCUUUGCGUGCUAGAAGGAUAUGAGUAGG [EX ENG3 1.42] (Eterna round: R96, puzzle: Exclusion NG 3)
Input ligand: FMN 200 uM
  apparent KD of MS2 coat protein: 84.3 nM
[1]
  apparent KD of MS2 coat protein: 43 nM
Input ligand: none
  apparent KD of MS2 coat protein: 48.3 nM

## GGCAGACAUGAGGAUCACCCAUGUCAGGAUAUGUGGCGAUCGUCGAAAGACGAUAGCCACAGAAGGGACAUGCC [Eli x1 4.20] (Eterna round: R97, puzzle: Exclusion 1)
Input ligand: FMN 200 uM
  apparent KD of MS2 coat protein: 40.7 nM
Input ligand: none
  apparent KD of MS2 coat protein: 22.4 nM

## AGGAUGUAAGGAUAUCCAAGGGUAACGCCAAUGGCAGCCCAGGAGAAGGUACAUGAGGAUCACCCAUGUGAUAA [Leatbi] (Eterna round: R97, puzzle: Exclusion 4)
Input ligand: FMN 200 uM
  apparent KD of MS2 coat protein: 263 nM
Input ligand: none
  apparent KD of MS2 coat protein: 80.8 nM

## CUCAUGUGAGGAUAUCAGUAGUAAAAAAAUAAAAUUACUACUGAGAAGGCACAUGAGGAUCACCCAUGUGUCUU [EX4 331: Super Stable 31] (Eterna round: R96, puzzle: Exclusion 4)
[1]
  apparent KD of MS2 coat protein: 13.3 nM

## UACAUGAGGAUCACCCAUGUUUUGUCGUGUAUGGUAUUUAUCUAGGAUAUCAAUUGAAUUAUUUAUGAGAAGGAGAAUAUUAAU [JMF's solution 58] (Eterna round: R96, puzzle: Exclusion NG 3)
Input ligand: FMN 200 uM
  apparent KD of MS2 coat protein: 42 nM
[1]
  apparent KD of MS2 coat protein: 36.4 nM
Input ligand: none
  apparent KD of MS2 coat protein: 49 nM

## AUAAUAAAGGAGGAUAUCGUAACGGAAACGUUACGAGAAGGUCUAACAUGAGGAUCACCCAUGUUCCUCAAAUA [Mat - Exclusion 6 - Eli Mod - D50] (puzzle: Exclusion 6)
[2]
  apparent KD of MS2 coat protein: 47.8 nM
[3]
  apparent KD of MS2 coat protein: 35.4 nM
[4]
  apparent KD of MS2 coat protein: 47 nM

## UUUUUGUGAGGAUAUCAGUAGUAAAAAAAUAAAAUUACUACUGAGAAGGCACAUGAGGAUCACCCAUGUUUUUC [salish99_ex4_r3_014] (puzzle: Exclusion 4)
[3]
  apparent KD of MS2 coat protein: 35.6 nM

## ACAUGAGGAUCACCCAUGUGAAAGAAAUGGCUGACUUUGAGCUAGGAUAUUUGUGCAUAUCAAACGAAGAAGGAGCAUUACUGG [Deportation 100 - Jieux - Exclusion NG 3] (Eterna round: R96, puzzle: Exclusion NG 3)
[1]
  apparent KD of MS2 coat protein: 16.4 nM

## GGUACUAACACGAAAGUGUUAGUACUAUAAGUUUGUGUUACAUGAGGAUCACCCAUGUCCUCAUAAGCUCGUCUUGU [JL-sv3-2.20 mat747 mod] (puzzle: Sensor v3, turn-off variant 2)
[2]
  apparent KD of MS2 coat protein: 623 nM
[3]
  apparent KD of MS2 coat protein: 59.6 nM
[4]
  apparent KD of MS2 coat protein: 685 nM

## ACAUGAGGAUCACCCAUGUUUGGCUGGUUUUCUCCGGCUGUCGAGGAUAUAGUACGGUAUCCGCGCUAGAAGGUGAGGGUCGGC [Aenatbe mod 2] (Eterna round: R96, puzzle: Exclusion NG 3)
Input ligand: FMN 200 uM
  apparent KD of MS2 coat protein: 17.1 nM
[1]
  apparent KD of MS2 coat protein: 12.2 nM
Input ligand: none
  apparent KD of MS2 coat protein: 19 nM

## UCGUGGUUACGCUGCAGUUGCCUGAGCGGAGGCUCUGUGACAUGAGGAUCACCCAUGUAGCUUUUUGCUCAUCUUAA [JR_SV3TOV2_Sub040] (puzzle: Sensor v3, turn-off variant 2)
[2]
  apparent KD of MS2 coat protein: 25.2 nM
[3]
  apparent KD of MS2 coat protein: 39.9 nM
[4]
  apparent KD of MS2 coat protein: 24.6 nM

## UGAGUGCUGCGAGGAUAUACAUGAGGAUCACCCAUGUUUUCGUGUGAGGCAAAGCCUCACACGAUGUAGAAGGCGCAGUACUCU [Mat - Exclusion NG 2 - Mod of JL - D35] (Eterna round: R96, puzzle: Exclusion NG 2)
Input ligand: FMN 200 uM
  apparent KD of MS2 coat protein: 13.2 nM
[1]
  apparent KD of MS2 coat protein: 10.7 nM
Input ligand: none
  apparent KD of MS2 coat protein: 16.1 nM

## GCGCCAUCGUGAGAUGGCGUAUUUACAUGAGGAUCACCCAUGUAGGAUAUCGAUUGCUUUGCAGUCGAGAAGGGCAUGAUAAGU [JL ENG3 3.78] (Eterna round: R96, puzzle: Exclusion NG 3)
Input ligand: FMN 200 uM
  apparent KD of MS2 coat protein: 72.5 nM
[1]
  apparent KD of MS2 coat protein: 37.3 nM
Input ligand: none
  apparent KD of MS2 coat protein: 54.5 nM

## CGGCGGGCAGGAUAUGGAAAUAAUAACAUGAGGAUCACCCAUGUAAAUAAAUGGGAAUAACCAGAAGGGCUUGUUG [-18.2, -17.7 kcal, A 37%] (Eterna round: R97, puzzle: Exclusion 5)
Input ligand: FMN 200 uM
  apparent KD of MS2 coat protein: 49.7 nM
Input ligand: none
  apparent KD of MS2 coat protein: 90.9 nM

## CUAGCUUCGGCUAGUACAAGCUUUUUGCUCGUCUUAUUAACAUGAGGAUCACCCAUGUUAAUGAGACCUCAUGUAUU [Sensor v3 - turn-off variant 2 - 9] (puzzle: Sensor v3, turn-off variant 2)
[2]
  apparent KD of MS2 coat protein: 12.7 nM
[3]
  apparent KD of MS2 coat protein: 15.2 nM
[4]
  apparent KD of MS2 coat protein: 11.1 nM

## CAGUUCCAGGGAGGAUAUCCGAAAGGAAGUGUAGGAGAAGGCCCAAACUGAAAACACAUGAGGAUCACCCAUGUAGGUGUUCUC [PowerStrip EXNG 1.20] (Eterna round: R96, puzzle: Exclusion NG 1)
Input ligand: FMN 200 uM
  apparent KD of MS2 coat protein: 1320 nM
[1]
  apparent KD of MS2 coat protein: 656 nM
Input ligand: none
  apparent KD of MS2 coat protein: 659 nM

## CCGCUCCGUGUAGGAUAUCGGCGUGCCCUGCGCCGAGAAGGACAUGAGGAUCACCCAUGUAUGUUAUUAUCACGCGUGGCGCAC [Design 75] (Eterna round: R96, puzzle: Exclusion NG 1)
Input ligand: FMN 200 uM
  apparent KD of MS2 coat protein: 18.7 nM
[1]
  apparent KD of MS2 coat protein: 15 nM
Input ligand: none
  apparent KD of MS2 coat protein: 19.9 nM

## UUAGAAAGGUUAGGAUAUUAAUUAUUGUAUAGUAUGAUCUACAUGAGGAUCACCCAUGUUAAAUAUAAGAAGGAACGUUAGAUU [JR_ExcNG2_Sub093] (Eterna round: R96, puzzle: Exclusion NG 2)
[1]
  apparent KD of MS2 coat protein: 39.9 nM

## CAGCUGAAAGUGAGGAUAUAGACUGCCUCGGCAGUCUAGAAGGCACAUGAGGAUCACCCAUGUCUCAACAGCUG [BmEx4/1-B2] (Eterna round: R97, puzzle: Brourd's mod of Exclusion 4)
Input ligand: FMN 200 uM
  apparent KD of MS2 coat protein: 70.2 nM
Input ligand: none
  apparent KD of MS2 coat protein: 11.3 nM

## UUUACAAGCUAUAGAUCCCACAUGAGGAUCACCCAUGUUGCUGCCGGUGACGGUAGCAUAACUAUUGCUCGUCUUAU [JL TOV1 3.61] (Eterna round: R97, puzzle: Sensor, turn-off variant 1)
Input ligand: FMN 200 uM
  apparent KD of MS2 coat protein: 150 nM
Input ligand: none
  apparent KD of MS2 coat protein: 185 nM
